Values quoted from earlier work as cited in publication PMC3651761.

Key:
[1] = molecular target: Met receptor (Homo sapiens) (UniProt P08581)
IGF-IR (Homo sapiens) = IGF-IR (Homo sapiens) (UniProt P08069)
Sequence of UniProt P08069 (P08069 31-736, chain 1 of 2): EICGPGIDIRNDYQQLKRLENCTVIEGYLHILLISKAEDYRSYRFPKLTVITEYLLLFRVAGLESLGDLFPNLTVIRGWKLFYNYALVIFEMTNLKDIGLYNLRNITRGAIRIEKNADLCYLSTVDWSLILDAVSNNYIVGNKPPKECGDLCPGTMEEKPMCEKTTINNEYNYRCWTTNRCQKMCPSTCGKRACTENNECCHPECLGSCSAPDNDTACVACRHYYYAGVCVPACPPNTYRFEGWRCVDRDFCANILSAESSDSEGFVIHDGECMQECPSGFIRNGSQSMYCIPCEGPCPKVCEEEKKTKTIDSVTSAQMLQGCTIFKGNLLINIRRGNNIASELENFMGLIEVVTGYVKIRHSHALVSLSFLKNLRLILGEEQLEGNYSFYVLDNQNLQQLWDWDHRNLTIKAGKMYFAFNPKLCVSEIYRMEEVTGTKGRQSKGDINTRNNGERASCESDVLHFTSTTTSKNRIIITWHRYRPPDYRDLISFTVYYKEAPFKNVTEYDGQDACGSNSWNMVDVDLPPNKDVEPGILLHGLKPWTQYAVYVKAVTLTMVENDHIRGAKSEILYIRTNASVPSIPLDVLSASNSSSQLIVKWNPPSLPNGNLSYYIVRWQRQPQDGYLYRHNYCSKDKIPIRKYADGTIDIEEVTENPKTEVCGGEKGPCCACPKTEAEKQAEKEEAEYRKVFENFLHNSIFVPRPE
Sequence of UniProt P08069 (P08069 741-935, chain 2 of 2): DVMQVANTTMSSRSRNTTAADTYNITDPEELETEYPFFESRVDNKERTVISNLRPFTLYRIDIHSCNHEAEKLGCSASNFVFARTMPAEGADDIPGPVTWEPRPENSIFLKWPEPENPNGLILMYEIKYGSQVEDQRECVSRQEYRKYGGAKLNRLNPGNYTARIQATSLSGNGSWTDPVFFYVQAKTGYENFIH

Sequence of UniProt P08581 (P08581 25-932): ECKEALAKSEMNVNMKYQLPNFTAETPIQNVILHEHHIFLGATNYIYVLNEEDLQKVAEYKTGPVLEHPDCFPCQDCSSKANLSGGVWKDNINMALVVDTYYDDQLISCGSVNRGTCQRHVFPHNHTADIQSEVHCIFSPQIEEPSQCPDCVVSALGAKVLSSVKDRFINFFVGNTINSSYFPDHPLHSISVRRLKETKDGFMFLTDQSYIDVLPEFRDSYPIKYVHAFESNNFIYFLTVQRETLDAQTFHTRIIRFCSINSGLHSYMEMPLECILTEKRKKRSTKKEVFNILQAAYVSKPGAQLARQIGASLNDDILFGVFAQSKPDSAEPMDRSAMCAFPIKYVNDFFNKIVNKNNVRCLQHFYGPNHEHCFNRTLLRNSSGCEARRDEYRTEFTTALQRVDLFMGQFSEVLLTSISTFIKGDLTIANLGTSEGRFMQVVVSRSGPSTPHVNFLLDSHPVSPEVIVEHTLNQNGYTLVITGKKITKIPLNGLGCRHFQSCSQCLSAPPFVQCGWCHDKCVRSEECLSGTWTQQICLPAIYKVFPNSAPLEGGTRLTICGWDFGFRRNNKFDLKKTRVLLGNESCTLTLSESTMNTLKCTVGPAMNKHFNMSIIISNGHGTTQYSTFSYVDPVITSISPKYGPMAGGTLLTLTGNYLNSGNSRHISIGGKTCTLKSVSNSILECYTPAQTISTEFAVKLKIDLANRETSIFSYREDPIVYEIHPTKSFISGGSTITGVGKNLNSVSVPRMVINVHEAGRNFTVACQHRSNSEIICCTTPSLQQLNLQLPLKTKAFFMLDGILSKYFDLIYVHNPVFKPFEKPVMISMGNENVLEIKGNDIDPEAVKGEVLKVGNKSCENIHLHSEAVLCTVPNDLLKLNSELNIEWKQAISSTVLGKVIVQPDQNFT

In the case of Decorin (from UniProt P07585), the Kd [1] is listed as 2 nM and the Kd (IGF-IR (Homo sapiens)) is listed as 18 nM.
